This note sets out measurements from patent US6897054.

The target in data set [1] is T1, myc-tagged H37 protein.
T1 chain: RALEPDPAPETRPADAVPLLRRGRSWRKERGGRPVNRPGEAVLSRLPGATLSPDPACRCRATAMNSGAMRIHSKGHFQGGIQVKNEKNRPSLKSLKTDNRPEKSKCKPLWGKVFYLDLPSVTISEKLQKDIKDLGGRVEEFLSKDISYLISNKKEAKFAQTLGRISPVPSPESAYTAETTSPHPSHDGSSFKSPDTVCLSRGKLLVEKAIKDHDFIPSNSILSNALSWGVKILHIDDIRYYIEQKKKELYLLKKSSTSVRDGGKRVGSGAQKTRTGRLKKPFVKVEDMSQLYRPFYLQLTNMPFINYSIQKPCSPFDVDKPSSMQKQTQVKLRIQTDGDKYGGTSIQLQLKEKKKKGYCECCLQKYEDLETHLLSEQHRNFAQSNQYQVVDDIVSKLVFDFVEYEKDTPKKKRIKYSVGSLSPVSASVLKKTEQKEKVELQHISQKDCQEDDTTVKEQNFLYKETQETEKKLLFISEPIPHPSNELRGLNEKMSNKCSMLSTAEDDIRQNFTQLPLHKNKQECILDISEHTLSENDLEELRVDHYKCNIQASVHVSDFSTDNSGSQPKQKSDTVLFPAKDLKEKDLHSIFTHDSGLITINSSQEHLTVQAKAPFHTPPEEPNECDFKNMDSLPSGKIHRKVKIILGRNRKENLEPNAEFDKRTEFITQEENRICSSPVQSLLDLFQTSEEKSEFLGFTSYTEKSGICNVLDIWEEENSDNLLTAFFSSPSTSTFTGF

Data set [2] concerns the target huCdc7 fused to DNA-binding domain of Gal4 (human). In words: yeast two-hybrid assay, lacZ activity.

B1: huCdc7 (protein)
chain: MEASLGIQMDEPMAFSPQRDRFQAEGSLKKNEQNFKLAGVKKDIEKLYEAVPQLSNVFKIEDKIGEGTFSSVYLATAQLQVGPEEKIALKHLIPTSHPIRIAAELQCLTVAGGQDNVMGVKYCFRKNDHVVIAMPYLEHESFLDILNSLSFQEVREYMLNLFKALKRIHQFGIVHRDVKPSNFLYNRRLKKYALVDFGLAQGTHDTKIELLKFVQSEAQQERCSQNKSHIITGNKIPLSGPVPKELDQQSTTKASVKRPYTNAQIQIKQGKDGKEGSVGLSVQRSVFGERNFNIHSSISHESPAVKLMKQSKTVDVLSRKLATKKKAISTKVMNSAVMRKTASSCPASLTCDCYATDKVCSICLSRRQQVAPRAGTPGFRAPEVLTKCPNQTTAIDMWSAGVIFLSLLSGRYPFYKASDDLTALAQIMTIRGSRETIQAAKTFGKSILCSKEVPAQDLRKLCERLRGMDSSTPKLTSDIQGHASHQPAISEKTDHKASCLVQTPPGQYSGNSFKKGDSNSCEHCFDEYNTNLEGWNEVPDEAYDLLDKLLDLNPASRITAEEALLHPFFKDMSL
With B1, the “in vitro kinase reaction of huCdc7/H37 immunoprecipitates with GST-MCM3 fusion protein as substrate” value in data set [1] is “phosphorylation in a good efficiency was observed for the MCM3 protein in both immunoprecipitate of anti-huCdc7 antibody and immunoprecipitate of anti-myc antibody”.

B2: H37 deletion derivative ΔC fused to Gal4 activation domain (protein, not shown: large carriers)
chain: MNSGAMRIHSKGHFQGGIQVKNEKNRPSLKSLKTDNRPEKSKCKPLWGKVFYLDLPSVTISEKLQKDIKDLGGRVEEFLSKDISYLISNKKEAKFAQTLGRISPVPSPESAYTAETTSPHPSHDGSSFKSPDTVCLSRGKLLVEKAIKDHDFIPSNSILSNALSWGVKILHIDDIRYYIEQKKKELYLLKKSSTSVRDGGKRVGSGAQKTRTGRLKKPFVKVEDMSQLYRPFYLQLTNMPFINYSIQKPCSPFDVDKPSSMQKQTQVKLRIQTDGDKYGGTSIQLQLKEKKKKGYCECCLQKYEDLETHLLSEQHRNFAQSNQYQVVDDIVSKLVFDFVEYEKDTPKKKRIKYSVGSLSPVSASVLKKTEQKEKVELQHISQKDCQEDDTTVKEQNFLYKETQETEKKLLFISEPIPHPSNELRGLNEKMSNKCSMLSTAEDDIRQNFTQLPLHKNKQECILDISEHTLSENDLEELRVDHYKCNIQASVHVSDFSTDNSGSQPKQKSDTVLFPAKDLKEKDLHSIFTHDSGLITINSSQEHLTVQAKAPFHTPPEEPNECDFKNMDSLPSGKIHRKVKIILGRNRKENLEPNAEFDKRTEFITQEENRICSSPVQSLLDLFQTSEEKSEFLGFTSYTEKSGICNVLDIWEEEN
The molecule B2 gave a binding ability with huCdc7 relative to full-length H37 in data set [2] of 60%.
